Data on 60 molecules can be found in patent US20180282393A1 (IMMATICS BIOTECHNOLOGIES, published 2018).

The target of the experiment is T1, HLA-A*02:01 (human).
T1 construct: Captured on streptavidin plates and detected with anti-b2m; also called peptide-receptive MHC molecules; MHC class I
Description: UV-ligand exchange, anti-b2m ELISA; peptide exchange yield grade (+ >=10%, ++ >=20%, +++ >=50, ++++ >=75%). The text has this: Candidate peptides for T cell based therapies according to the present invention were further tested for their MHC binding capacity (affinity). The individual peptide-MHC complexes were produced by UV-ligand exchange, where a UV-sensitive peptide is cleaved upon UV-irradiation, and exchanged with the peptide of interest as analyzed. Only peptide candidates that can effectively bind and stabilize the peptide-receptive MHC molecules prevent dissociation of the MHC complexes. To determine the yield of the exchange reaction, an ELISA was performed based on the detection of the light chain (β2m) of stabilized MHC complexes. The assay was performed as generally described in Rodenko et al. (Rodenko et al., 2006).
96 well MAXISorp plates (NUNC) were coated over night with 2 ug/ml streptavidin in PBS at room temperature, washed 4× and blocked for 1 h at 37° C. in 2% BSA containing blocking buffer. Refolded HLA-A*02:01/MLA-001 monomers served as standards, covering the range of 15-500 ng/ml. Peptide-MHC monomers of the UV-exchange reaction were diluted 100 fold in blocking buffer. Samples were incubated for 1 h at 37° C., washed four times, incubated with 2 ug/ml HRP conjugated anti-β2m for 1 h at 37° C., washed again and detected with TMB solution that is stopped with […]. Absorption was measured at 450 nm. Candidate peptides that show a high exchange yield (preferably higher than 50%, most preferred higher than 75%) are generally preferred for a generation and production of antibodies or fragments thereof, and/or T cell receptors or fragments thereof, as they show sufficient avidity to the MHC molecules and prevent dissociation of the MHC complexes.
(In general: In an ELISA, binding on a coated surface is turned into a signal by an enzyme label.)
For KLFGHLTSA, the peptide exchange yield fell in the range of 20 to 50%.

In turn, SLYNLGGSKRISI returned a peptide exchange yield of no less than 75%.

RLPNAGTQV yielded a peptide exchange yield of no less than 75%.

VVMEELLKV yielded a peptide exchange yield of 20 to 50%.

The molecule NLMASQPQL displayed a peptide exchange yield of 50 to 75%.

In the case of IVREFLTAL, the peptide exchange yield lay in the range of 50 to 75%.

Regarding NLREGDQLL, the peptide exchange yield fell in the range of 50 to 75%.

The molecule GAIDLLHNV had a peptide exchange yield of 20 to 50%.

With ALYEYQPLQI, the peptide exchange yield was 20 to 50%.

As for GLASRILDA, the peptide exchange yield fell in the range of 50 to 75%.

Regarding LLPPPPPPA, the peptide exchange yield fell in the range of 50 to 75%.

Molecule SLNGNQVTV registered a peptide exchange yield of 10 to 20%.

Regarding GLESEELEPEEL, the peptide exchange yield lay in the range of 20 to 50%.

Turning to FLLRFSQDNA, the peptide exchange yield was 20 to 50%.

Consider GLTDVIRDV, for which the peptide exchange yield is no less than 75%.

As to GLAPNTPGKA, the peptide exchange yield fell in the range of 50 to 75%.

The molecule YVVGGFLYQRL gave a peptide exchange yield of 50 to 75%.

SIFEGLLSGV had a peptide exchange yield of 20 to 50%.

Molecule LLSGDLIFL registered a peptide exchange yield of 50 to 75%.

In turn, YTQPFSHYGQAL gave a peptide exchange yield of 50 to 75%.

Molecule FLLDQVQLGL had a peptide exchange yield of 50 to 75%.

As for VLASGFLTV, the peptide exchange yield is no less than 75%.

Turning to LILESIPVV, the peptide exchange yield fell in the range of 20 to 50%.

SLDGTELQL: the peptide exchange yield was in the range of 50 to 75%.

As for VAIGGVDGNVRL, the peptide exchange yield was in the range of 20 to 50%.

On to GLAFSLYQA, for which the peptide exchange yield fell in the range of 20 to 50%.

As for TASAITPSV, the peptide exchange yield was 50 to 75%.

Molecule VLPKLYVKL displayed a peptide exchange yield of 20 to 50%.

The molecule VVVTGLTLV displayed a peptide exchange yield of 20 to 50%.

On to SLVSEQLEPA, for which the peptide exchange yield was in the range of 50 to 75%.

In turn, YTAQIGADIAL showed a peptide exchange yield of 50 to 75%.

KLNDTYVNV returned a peptide exchange yield of 50 to 75%.

For YMLDIFHEV, the peptide exchange yield was 20 to 50%.

As for KVVGKDYLL, the peptide exchange yield was in the range of 10 to 20%.

As to LLANGVYAA, the peptide exchange yield lay in the range of 10 to 20%.

The molecule LVRDTQSGSL gave a peptide exchange yield of 20 to 50%.

With SMHQMLDQTL, the peptide exchange yield fell in the range of 20 to 50%.

SLLDTLREV: the peptide exchange yield was in the range of 50 to 75%.

With ALVEVTEHV, the peptide exchange yield was in the range of 20 to 50%.

GLDVTSLRPFDL: the peptide exchange yield was 50 to 75%.

Molecule MISRTPEV had a peptide exchange yield of 20 to 50%.

Regarding LLFAGTMTV, the peptide exchange yield was 20 to 50%.

Molecule GLAPFLLNAV registered a peptide exchange yield of 50 to 75%.

On to LLRFSQDNA, for which the peptide exchange yield lay within 50 to 75%.

Regarding YQDLLNVKM, the peptide exchange yield is 50 to 75%.

TQTAVITRI gave a peptide exchange yield of 10 to 20%.

Molecule SLDGFTIQV returned a peptide exchange yield of 20 to 50%.

Molecule SLSPVILGV displayed a peptide exchange yield of no less than 75%.

Molecule IAAIRGFLV came in with a peptide exchange yield of 50 to 75%.

With LLDEKVQSV, the peptide exchange yield lay in the range of 50 to 75%.

The molecule LAYTLGVKQL came in with a peptide exchange yield of 50 to 75%.

GLMKDIVGA: the peptide exchange yield was in the range of 50 to 75%.

STYGGGLSV gave a peptide exchange yield of 50 to 75%.

Consider ATGNDRKEAAENSL, for which the peptide exchange yield is 50 to 75%.

KLSDSATYL: the peptide exchange yield fell in the range of 50 to 75%.

MLAEKLLQA: the peptide exchange yield lay within 10 to 20%.

As to TQTTHELTI, the peptide exchange yield lay in the range of 50 to 75%.

ALWLPTDSATV: the peptide exchange yield lay within 50 to 75%.

Consider VLAEGGEGV, for which the peptide exchange yield is 50 to 75%.

As to MLTELEKAL, the peptide exchange yield lay within 20 to 50%.
